Measured values published in publication PMC3830196, “Calmodulin-like protein AtCML3 mediates dimerization of peroxisomal processing protease AtDEG15 and contributes to normal peroxisome metabolism” (Plant Molecular Biology, 2013).

Target: T1, AtDEG15 full length (yeast two-hybrid / three-hybrid fusion) (Arabidopsis thaliana, UniProt Q8VZD4 1-709)
T1 construct: AtDEG15, peroxisomal DEG protease of Arabidopsis thaliana (At1g28320); full-length coding region; Cloned both into pBridge and pGAD424; in the Y3H the full length stood in pBridge; also called AtDEG15_pBridge; AtDEG15_pGAD424; source: yeast two-hybrid fusion (S. cerevisiae AH109)
Experiment: two-hybrid; Matchmaker GAL4 system, fusions in pBridge (DNA-binding domain) and pGAD424 (activation domain), S. cerevisiae AH109; HIS3 reporter (growth on His-free medium) and lacZ reporter (beta-galactosidase, Miller units)
Details: partners not purified

beta-galactosidase activity, fold over the negative controls: 20 fold
B1: AtCML3 full length (yeast two-hybrid fusion) (natural protein, Arabidopsis thaliana, UniProt Q9SRR7 1-153, looked up)
chain: MDQAELARIFQMFDRNGDGKITKQELNDSLENLGIYIPDKDLVQMIEKIDLNGDGYVDIEEFGGLYQTIMEERDEEEDMREAFNVFDQNRDGFITVEELRSVLASLGLKQGRTLEDCKRMISKVDVDGDGMVNFKEFKQMMKGGGFAALGSNL
notes: AtCML3, calmodulin-like protein of Arabidopsis thaliana (At3g07490); full-length coding region; Cloned both into pBridge and pGAD424; also called AtCML3_pGAD424; AtCML3_pBridge; source: yeast two-hybrid fusion (S. cerevisiae AH109)
